The record followed here is publication PMC5886089, “Biophysical and functional characterization of hippocalcin mutants responsible for human dystonia” (Human Molecular Genetics, 2017).

The data set deals with the molecule itself. Briefly: cross-linking; in vitro cross-link (BS3 or DSP) of purified protein in the presence of calcium; densitometry after DSP.

B1: hippocalcin(A190T) (natural protein)
chain: not shown
notes: human hippocalcin (HPCA) with the dystonia-causing mutation A190T, in pGEX-6P1; unmyristoylated; Mutation found homozygous in DYT2 dystonia patients; also called HPCA A190T; A190T mutant; source: E. coli BL21(DE3) STAR, purified (GST resin, PreScission cleavage, Superdex 200); not shown: GST, N-terminal, cleaved
Take B1: the binding result is “binds”.

B2: hippocalcin(T71N) (natural protein)
chain: not shown
notes: human hippocalcin (HPCA) with the dystonia-causing mutation T71N, in pGEX-6P1; unmyristoylated; Mutation found homozygous in DYT2 dystonia patients; also called HPCA T71N; T71N mutant; source: E. coli BL21(DE3) STAR, purified (GST resin, PreScission cleavage, Superdex 200); not shown: GST, N-terminal, cleaved
In the case of B2, the binding result is given as “binds”.
